Patent US20240117030A1
Where two headings read alike, the source gives them in different places.

Experiments:
[1] = molecular target: recombinant human IL-33 (R&D Systems 3625-IL) (human) (UniProt O95760); test: cell-based or functional assay
[2] = molecular target: recombinant human IL-13 R110Q (human), P35225; test: cell-based or functional assay
[3] = molecular target: recombinant human IL-33 (R&D Systems 3625-IL), reduced with DTT (human) (UniProt O95760); test: cell-based or functional assay
[4] = molecular target: T1, biotinylated human IL-33 wild-type (WT), reduced with 3 mM DTT (human) (UniProt O95760); test: KinExA solution affinity, fixed antigen format, global fit
T1 sequence (biotinylated (site not stated), looked up): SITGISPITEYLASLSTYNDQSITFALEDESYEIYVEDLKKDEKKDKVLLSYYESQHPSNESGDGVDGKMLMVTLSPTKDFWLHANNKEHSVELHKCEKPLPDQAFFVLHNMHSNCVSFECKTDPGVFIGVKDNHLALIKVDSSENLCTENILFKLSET

[5] = molecular target: recombinant human IL-33 (R&D Systems 3625-IL), reduced with DTT (human) (UniProt O95760); test: cell-based or functional assay; remark: listed apart in the source

recombinant human IL-13 R110Q (human), P35225, sequence (P35225 35-146, stated change not applied): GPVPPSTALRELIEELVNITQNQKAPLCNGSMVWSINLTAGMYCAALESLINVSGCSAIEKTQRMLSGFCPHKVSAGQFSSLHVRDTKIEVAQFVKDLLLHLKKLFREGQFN

B1: IL33-310 (antibody, from a related filing, V domains shown)
VH: EVQLVESGGGLVQPGGSLRLSCAASGFTFSSFSMSWVRQAPGKGLEWVATISGGKTFTDYVDSVKGRFTISRDDSKNTLYLQMNSLRAEDTAVYYCTRANYGNWFFEVWGQGTLVTVSS
VL: EIVLTQSPATLSLSPGERATLSCRASESVAKYGLSLLNWFQQKPGQPPRLLIFAASNRGSGIPARFSGSGSGTDFTLTISSLEPEDFAVYYCQQSKEVPFTFGQGTKVEIKR
IC50 (pM) HEK-Blue IL-33 SEAP (mean) [1]: 56.4 pM

B2: IL13-0001 (antibody, human IgG1, kappa)
heavy: EVQLVESGGGLVQPGGSLRLSCAASGFTFSSYAMSWVRQAPGKGLEWVASISSGDTTYYPDSVKGRFTISRDNAKNSLYLQMNSLRAEDTAVYYCARNEGYYFGLTLWGQGTLVTVSSASTKGPSVFPLAPSSKSTSGGTAALGCLVKDYFPEPVTVSWNSGALTSGVHTFPAVLQSSGLYSLSSVVTVPSSSLGTQTYICNVNHKPSNTKVDKKVEPKSCDKTHTCPPCPAPEAAGAPSVFLFPPKPKDTLMISRTPEVTCVVVDVSHEDPEVKFNWYVDGVEVHNAKTKPREEQYNSTYRVVSVLTVLHQDWLNGKEYKCKVSNKALPAPIEKTISKAKGQPREPQVYTLPPSREEMTKNQVSLTCLVKGFYPSDIAVEWESNGQPENNYKTTPPVLDSDGSFFLYSKLTVDKSRWQQGNVFSCSVMHEALHNHYTQKSLSLSPGK
light: DIQMTQSPSSLSASVGDRVTITCKASESVDHFGWSLVHWYQQKPGKAPKLLIYRASNLESGVPSRFSGSGSGTDFTLTISSLQPEDFATYYCQQSNEDPWTFGGGTKVEIKRTVAAPSVFIFPPSDEQLKSGTASVVCLLNNFYPREAKVQWKVDNALQSGNSQESVTEQDSKDSTYSLSSTLTLSKADYEKHKVYACEVTHQGLSSPVTKSFNRGEC
IC50 (median), Monocyte CD23 expression [2]: 0.0101 nM
IC50 (median), STAT6 phosphorylation in HT-29 cells [2]: 0.104 nM

B3: IL33-0352 (Clinical Benchmark) (antibody, INN chains, looked up, V domains shown)
VH: EVQLVESGGNLEQPGGSLRLSCTASGFTFSRSAMNWVRRAPGKGLEWVSGISGSGGRTYYADSVKGRFTISRDNSKNTLYLQMNSLSAEDTAAYYCAKDSYTTSWYGGMDVWGHGTTVTVSS
VL: DIQMTQSPSSVSASVGDRVTITCRASQGIFSWLAWYQQKPGKAPKLLIYAASSLQSGVPSRFSGSGSGTDFTLTISSLQPEDFAIYYCQQANSVPITFGQGTRLEIK
modifications: IgG1 effector-null
IC50 [nM] versus reduced human IL-33 (R&D), IC50 (AVE) [3]: 0.011 nM
Kd [4]: 0.00066 nM
IC50 [nM] versus reduced human IL-33 (R&D), IC50 (AVE) [5]: 0.018 nM

B4: IL33-265 (antibody, from a related filing, V domains shown)
VH: B3 VH
VL: DIQMTQSPSSVSASVGDRVTITCRASQGIFSWLAWYQQKPGKAPKLLIYAASSLQSGVPSRFSGSGSGTDFTLTISSLQPEDFAIYYCQQANSVPITFGQGTRLEIKR
IC50 (pM) HEK-Blue IL-33 SEAP (mean) [1]: 15.9 pM
